From patent US8524444 come the findings set out here.

Data set [1] deals with T1, polypeptide 4.1, FITC(Aha)STPVSSANMK (wt CK2-derived peptide).
T1 chain: STPVSSANMK

Data set [2] addresses T2, polypeptide 4.2, FITC(Aha)STPFSSANMK (V→F).
T2 chain: STPFSSANMK

Data set [3] deals with T3, polypeptide 4.3, FITC(Aha)STPRSSANMK (V→R).
T3 chain: STPRSSANMK

Data set [4] addresses T4, polypeptide 4.4, FITC(Aha)STPVSFANMK (S→F).
T4 chain: STPVSFANMK

The target of data set [5] is T5, polypeptide 4.5, FITC(Aha)STPVSRANMK (S→R).
T5 chain: STPVSRANMK

In data set [6] the target is T6, polypeptide 4.6, FITC(Aha)STPVSSANMK(DEAC), unglycosylated.
T6 chain: STPVSSANMK

The target of data set [7] is T7, polypeptide 4.8, FITC(Aha)STPVSRANMK(DEAC), unglycosylated.
T7 chain: STPVSRANMK

B1: O-Linked N-acetylglucosaminyltransferase (OGT) (protein)
chain: MHYKEAIRISPTFADAYSNMGNTLKEMQDVQGALQCYTRAIQINPAFADAHSNLASIHKDSGNIPEAIASYRTALKLKPDFPDAYCNLAHCLQIVCDWTDYDERMKKLVSIVADQLEKNRLPSVHPHHSMLYPLSHGFRKAIAERHGNLCLDKINVLHKPPYEHPKDLKLSDGRLRVGYVSSDFGNHPTSHLMQSIPGMHNPDKFEVFCYALSPDDGTNFRVKVMAEANHFIDLSQIPCNGKAADRIHQDGIHILVNMNGYTKGARNELFALRPAPIQAMWLGYPGTSGALFMDYIITDQETSPAEVAEQYSEKLAYMPHTFFIGDHANMFPHLKKKAVIDFKSNGHIYDNRIVLNGIDLKAFLDSLPDVKIVKMKCPDGGDNADSSNTALNMPVIPMNTIAEAVIEMINRGQIQITINGFSISNGLATTQINNKAATGEEVPRTIIVTTRSQYGLPEDAIVYCNFNQLYKIDPSTLQMWANILKRVPNSVLWLLRFPAVGEPNIQQYAQNMGLPQNRIIFSPVAPKEEHVRRGQLADVCLDTPLCNGHTTGMDVLWAGTPMVTMPGETLASRVAASQLTCLGCLELIAKNRQEYEDIAVKLGTDLEYLKKVRGKVWKQRISSPLFNTKQYTMELERLYLQMWEHYAAGNKPDHMIKPVEVTESA
Take B1: the Relative rate of glycosylation amounted to 1 in data set [1]; 0.15 in data set [2]; 0 in data set [3]; 0.4 in data set [4]; 0.7 in data set [5].

B2: Proteinase K (protein)
chain: AAQTNAPWGLARISSTSPGTSTYYYDESAGQGSCVYVIDTGIEASHPEFEGRAQMVKTYYYSSRDGNGHGTHCAGTVGSRTYGVAKKTQLFGVKVLDDNGSGQYSTIIAGMDFVASDKNNRNCPKGVVASLSLGGGYSSSVNSAAARLQSSGVMVAVAAGNNNADARNYSPASEPSVCTVGASDRYDRRSSFSNYGSVLDIFGPGTSILSTWIGGSTRSISGTSMATPHVAGLAAYLMTLGKTTAASACRYIADTANKGDLSNIPFGTVNLLAYNNYQA
With B2, the “rate of proteolysis, unglycosylated against glycosylated polypeptide” value in data set [6] and in data set [7] was “˜100-500 times faster” in each case.
